Data as given in PMC11189558, “Mutations found in cancer patients compromise DNA binding of the winged helix protein STK19”.

Columns and labels:
STK19 (31-254) [1] = biological target: T1, STK19 (31-254) (human, UniProt P49842 31-254); experiment: EMSA; n = 4; 20 mM HEPES pH 7.4, 100 mM NaCl, 1 mM MgCl2, 1 mg/ml BSA, 2 mM DTT, 5% glycerol; 30 min on ice; native 5% PAGE in 1X TBE; conditions: protein: recombinant, tags: GST cleaved, GPLGS left at N-terminus
STK19 (31-254) [2] = biological target: T1, STK19 (31-254); experiment: EMSA; n = 2; 20 mM HEPES pH 7.4, 100 mM NaCl, 1 mM MgCl2, 1 mg/ml BSA, 2 mM DTT, 5% glycerol; 30 min on ice; native 5% PAGE in 1X TBE; conditions: protein: recombinant; tags: GST cleaved; GPLGS left at N-terminus; label: 5' IRDye 700 on rU30; blunt

T1 sequence (P49842 31-254): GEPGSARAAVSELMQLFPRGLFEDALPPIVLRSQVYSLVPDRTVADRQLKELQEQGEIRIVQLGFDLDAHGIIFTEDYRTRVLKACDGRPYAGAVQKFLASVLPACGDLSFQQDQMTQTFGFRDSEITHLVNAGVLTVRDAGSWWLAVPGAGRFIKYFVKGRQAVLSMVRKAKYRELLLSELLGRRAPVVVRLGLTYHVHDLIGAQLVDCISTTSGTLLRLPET

B1: dsDNA 30-mer (dT-dA)30 (dsDNA)
DNA 1: TTTTTTTTTTTTTTTTTTTTTTTTTTTTTT
DNA 2: AAAAAAAAAAAAAAAAAAAAAAAAAAAAAA
Kd (STK19 (31-254) [1]; label: 5' IRDye 700 on dT30, blunt): 2.2 µM

B2: ssDNA dT30 (ssDNA)
DNA: TTTTTTTTTTTTTTTTTTTTTTTTTTTTTT
Kd (STK19 (31-254) [1]; label: 5' IRDye 700): 14.1 µM

B3: dsRNA 30-mer (rU-rA)30 (dsRNA)
RNA 1: UUUUUUUUUUUUUUUUUUUUUUUUUUUUUU
RNA 2: AAAAAAAAAAAAAAAAAAAAAAAAAAAAAA
Kd (STK19 (31-254) [2]): 3.2 µM
